Positions count from the first letter of the chain named. In names and notes the source's numbering stands. Ends that are not written are not given here. * marks the point of attachment. 5FAM = O=C1OC2(c3ccc(O)cc3Oc3cc(O)ccc32)c2ccc(C(=O)*)cc21
T1: myosin VI^998–1131 of the long isoform (myosin VI_(long)), cleaved from GST and purified (human, UniProt Q9UM54 998-1131)
T1 chain: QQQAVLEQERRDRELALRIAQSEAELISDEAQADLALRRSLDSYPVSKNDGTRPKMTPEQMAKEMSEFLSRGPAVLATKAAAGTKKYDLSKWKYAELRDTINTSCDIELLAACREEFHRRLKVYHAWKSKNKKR

T2: myosin VI^1069–1131 (human, UniProt Q9UM54 1069-1131)
T2 chain: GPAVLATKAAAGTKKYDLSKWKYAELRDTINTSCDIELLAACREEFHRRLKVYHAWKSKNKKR

T3: 5-carboxyfluorescein (5-FAM)-conjugated CLCa peptide 51–66 (human, UniProt P09496 51-66, also: 5-FAM conjugated, site not given here)
T3 construct: clathrin light chain A (CLCa), human, amino acids 51–66; source: synthetic peptide (GenScript)
T3 peptide (looked up): AFAILDGGAPGPQPHG

T4: 5-carboxyfluorescein (5-FAM)-conjugated CLCa peptide 51–61 (human, UniProt P09496 51-61, also: 5-FAM conjugated, site not given here)
T4 construct: clathrin light chain A (CLCa), human, amino acids 51–61; source: synthetic peptide (GenScript)
T4 peptide (looked up): AFAILDGGAPG

T5: His-Hip1R coiled-coil region (amino acids 346–655) (UniProt O75146 346-655)
T5 construct: also called His-Hip1R^346–655; Hip1R^346–655; source: bacterially purified (pRSF-duet)
T5 sequence (looked up): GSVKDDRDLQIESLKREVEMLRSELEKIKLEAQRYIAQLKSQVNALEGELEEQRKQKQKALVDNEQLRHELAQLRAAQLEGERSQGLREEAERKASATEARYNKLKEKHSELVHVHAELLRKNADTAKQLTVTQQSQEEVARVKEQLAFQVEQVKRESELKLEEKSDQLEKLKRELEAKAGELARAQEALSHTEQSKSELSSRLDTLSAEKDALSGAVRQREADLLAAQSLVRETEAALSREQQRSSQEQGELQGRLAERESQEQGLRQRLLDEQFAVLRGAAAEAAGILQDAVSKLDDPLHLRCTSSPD

B1: 5-carboxyfluorescein (5-FAM)-conjugated CLCa peptide 51–61 (peptide)
peptide: AFAILDGGAPG
modifications: also: 5-FAM conjugated, site not given here
B2: 5-carboxyfluorescein (5-FAM)-conjugated CLCa peptide 46–61 (peptide, UniProt P09496 46-61, looked up)
peptide: 5FAM-IENDEAFAILDGGAPG
notes: clathrin light chain A (CLCa), human, amino acids 46–61; also called CLCa^46–61; source: synthetic peptide (GenScript)
B3: myosin VI^998–1131 of the long isoform (myosin VI_(long)), cleaved from GST and purified (domain or fragment, human, UniProt Q9UM54 998-1131, looked up)
chain: T1 chain
notes: source: E. coli Rosetta (DE3), GST fusion cleaved with PreScission Protease, purified (ion exchange)
B4: GST-CLCa fragment of amino acids 47–97 (domain or fragment, human, UniProt P09496 47-97, looked up)
chain: ENDEAFAILDGGAPGPQPHGEPPGGPDAVDGVMNGEYYQESNGPTDSYAAI
notes: clathrin light chain A (CLCa), human, amino acids 47–97; also called CLCa 47–97; source: E. coli Rosetta (DE3), on glutathione-sepharose beads
B5: 5-carboxyfluorescein (5-FAM)-conjugated CLCa peptide 51–66 (peptide)
peptide: AFAILDGGAPGPQPHG
modifications: also: 5-FAM conjugated, site not given here
B6: CLCa^46–61, recombinant, cleaved from GST (for the NMR structure) (peptide, UniProt P09496 46-61, looked up)
peptide: IENDEAFAILDGGAPG
notes: clathrin light chain A (CLCa), human, amino acids 46–61; 13C,15N-labelled in one of the two samples; source: E. coli BL21 (DE3), GST fusion cleaved with PreScission Protease in the presence of myosin VI, purified (SEC)
B7: CLCa full length, bacterially produced (ITC; reconstitution of cages) (natural protein, human, UniProt P09496 1-248, looked up)
chain: MAELDPFGAPAGAPGGPALGNGVAGAGEEDPAAAFLAQQESEIAGIENDEAFAILDGGAPGPQPHGEPPGGPDAVDGVMNGEYYQESNGPTDSYAAISQVDRLQSEPESIRKWREEQMERLEALDANSRKQEAEWKEKAIKELEEWYARQDEQLQKTKANNRVADEAFYKQPFADVIGYVTNINHPCYSLEQAAEEAFVNDIDESSPGTEWERVARLCDFNPKSSKQAKDVSRMRSVLISLKQAPLVH
notes: clathrin light chain A (CLCa), human; Cleavage from GST is told for the cage reconstitution; also called CLCa FL; CLCa WT; source: bacterially produced and cleaved from GST, purified
B8: CLCa I54D full length (ITC) (natural protein, human, UniProt P09496 1-248, looked up)
chain: B7 chain with I54D
notes: clathrin light chain A (CLCa), human, I54D
B9: myosin VI^1050–1131 of the long isoform, cleaved from GST and purified (domain or fragment, human, UniProt Q9UM54 1050-1131, looked up)
chain: RPKMTPEQMAKEMSEFLSRGPAVLATKAAAGTKKYDLSKWKYAELRDTINTSCDIELLAACREEFHRRLKVYHAWKSKNKKR
notes: 15N- or 13C,15N-labelled in some NMR samples; also called Myo6; source: E. coli Rosetta (DE3) or BL21 (DE3), GST fusion cleaved with PreScission Protease, purified (ion exchange or SEC)

Columns and labels:
[1] = molecular target: 5-carboxyfluorescein (5-FAM)-conjugated CLCa peptide 46–61 (human) (UniProt P09496); assay: fluorescence polarisation; 20–50 nM 5-FAM-conjugated CLCa peptide titrated with purified myosin VI fragment from ~150 µM, 22 °C, 384-well plate
[2] = molecular target: myosin VI^1050–1131 of the long isoform, cleaved from GST and purified (UniProt Q9UM54); assay: GST pull-down, Coomassie, band quantitation; details: parent: est. 23; read off a plot
myosin VI^1050–1131 of the long isoform, cleaved from GST and purified (UniProt Q9UM54), sequence (Q9UM54 whole entry, looked up, tested part not stated, canonical isoform): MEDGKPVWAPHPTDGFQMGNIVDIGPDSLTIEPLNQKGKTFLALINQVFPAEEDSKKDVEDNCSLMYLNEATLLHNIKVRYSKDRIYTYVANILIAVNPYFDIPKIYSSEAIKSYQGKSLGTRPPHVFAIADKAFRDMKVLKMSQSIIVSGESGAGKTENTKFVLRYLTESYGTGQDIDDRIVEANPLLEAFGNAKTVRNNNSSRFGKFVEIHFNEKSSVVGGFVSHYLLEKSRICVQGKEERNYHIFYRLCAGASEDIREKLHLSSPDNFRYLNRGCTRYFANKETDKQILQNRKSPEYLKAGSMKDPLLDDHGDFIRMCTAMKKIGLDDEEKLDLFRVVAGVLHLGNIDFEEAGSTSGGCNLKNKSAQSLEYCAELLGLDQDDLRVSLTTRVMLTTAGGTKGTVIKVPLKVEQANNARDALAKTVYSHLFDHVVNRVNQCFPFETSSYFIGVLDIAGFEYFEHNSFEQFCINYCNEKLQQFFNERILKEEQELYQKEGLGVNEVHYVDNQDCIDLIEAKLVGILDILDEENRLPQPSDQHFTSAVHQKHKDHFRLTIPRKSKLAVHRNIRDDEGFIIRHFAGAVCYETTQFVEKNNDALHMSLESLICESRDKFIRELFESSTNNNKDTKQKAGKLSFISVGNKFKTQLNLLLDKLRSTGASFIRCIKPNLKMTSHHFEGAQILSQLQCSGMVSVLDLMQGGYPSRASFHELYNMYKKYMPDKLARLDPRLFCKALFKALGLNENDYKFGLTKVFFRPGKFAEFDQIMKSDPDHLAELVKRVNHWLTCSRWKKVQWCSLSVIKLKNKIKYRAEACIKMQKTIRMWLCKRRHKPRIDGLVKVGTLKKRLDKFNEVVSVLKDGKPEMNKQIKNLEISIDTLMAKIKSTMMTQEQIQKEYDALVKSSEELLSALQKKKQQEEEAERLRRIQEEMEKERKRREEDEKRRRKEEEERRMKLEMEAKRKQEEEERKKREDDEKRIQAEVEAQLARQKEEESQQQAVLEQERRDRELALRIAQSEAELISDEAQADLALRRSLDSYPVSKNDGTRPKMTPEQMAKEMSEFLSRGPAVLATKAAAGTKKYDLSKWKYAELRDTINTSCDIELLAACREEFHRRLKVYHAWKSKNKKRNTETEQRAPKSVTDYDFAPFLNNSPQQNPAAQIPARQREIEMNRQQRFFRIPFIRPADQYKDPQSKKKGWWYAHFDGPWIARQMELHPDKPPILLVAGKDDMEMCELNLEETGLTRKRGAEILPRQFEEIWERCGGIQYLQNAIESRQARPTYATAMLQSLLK

[3] = molecular target: T1, myosin VI^998–1131 of the long isoform …; assay: FP
myosin VI^1069–1131 = molecular target: T2, myosin VI^1069–1131; assay: FP
[4] = molecular target: B9; assay: fluorescence polarisation; 20–50 nM 5-FAM-conjugated CLCa peptide titrated with purified myosin VI fragment from ~150 µM, 22 °C, 384-well plate; details: both partners purified
[5] = molecular target: B3; assay: as above; details: both partners purified
[6] = molecular target: T3, 5-carboxyfluorescein (5-FAM)-conjugated …; assay: as above; details: both partners purified
[7] = molecular target: T4, 5-carboxyfluorescein (5-FAM)-conjugated …; assay: as above; details: both partners purified
[8] = molecular target: B3; assay: pull-down; GST-CLC proteins (1.5 μM) on glutathione sepharose beads incubated 1 h at 4 °C in JS buffer with cleaved and purified myosin VI fragments; SDS-PAGE, Coomassie; details: both partners purified
[9] = molecular target: B9; assay: NMR structure; complex of myosin VI^1050–1131 and CLCa^46–61, 221 intermolecular NOEs; 10 °C, 20 mM NaPO4 pH 6.5, 50 mM NaCl, 2 mM DTT; details: both partners purified
[10] = molecular target: B9; assay: ITC; 380 µM CLCa WT or I54D titrated into 20 µM Hip1R^346–655 or myosin VI^1050–1131 in the cell; 20 mM Tris-HCl pH 8.0, 150 mM NaCl, 2.5% glycerol, 25 °C; one-set-of-sites model; details: both partners purified
[11] = molecular target: T5, His-Hip1R coiled-coil region (amino …); assay: as above; details: both partners purified
[12] = molecular target: B7; assay: as above; details: both partners purified

Molecule: myosin VI^998–1131 of the short isoform (myosin VI_(short)), cleaved from GST and purified (domain or fragment)
- Kd [1]: 96 µM

Molecule: GST-CLCa 46–61 WT I54D
- response [2]: 3 % of binding

Molecule: myosin VI Y1121A mutant used for FP analysis (domain or fragment)
- difference in binding affinity against the wild type [1]: 2 log-fold

Molecule: B1
- Kd [3]: 22.6 µM

Molecule: B2
- Kd (myosin VI^1069–1131): 22 µM
- Kd [4]: 0.4 µM
- Kd [5]: 0.93 µM

Molecule: B3
- fold higher affinity of peptide 46–61 than of this peptide [6]: 10 fold
- fold higher affinity of peptide 46–61 than of this peptide [7]: 10 fold

Molecule: B4
- binding result [8]: binds

Molecule: B5
- Kd [3]: 13.1 µM

Molecule: B6
- binding result [9]: binds

Molecule: B7
- dH [10]: -48.5 kJ/mol
- stoichiometry N [10]: 0.79 sites
- Kd [11]: 1.37 µM
- dH [11]: -40.6 kJ/mol
- stoichiometry N [11]: 1.15 sites

Molecule: B8
- Kd [11]: 0.99 µM
- dH [11]: -36.5 kJ/mol
- stoichiometry N [11]: 1.01 sites

Molecule: B9
- Kd [12]: 0.09 µM

Reference: article PMC6823378, “Clathrin light chain A drives selective myosin VI recruitment to clathrin-coated pits under membrane tension” (Nature Communications, 2019)
